We go through one substance from article PMC5386471.

The test addresses Flag-ACRP-hCD40L.

In turn, “GPI-anchored CD40 ectodomain (from UniProt P25942 21-193)” displayed an amount of transfected CD40-GPI plasmid sufficient to inhibit 50% of CD40-induced NF-κB response (luciferase reporter, 293T cells; CD40L here from 1 ng of co-transfected plasmid) of 1.4 ng.
